Experimental findings from US20170112792A1 (BETH ISRAEL DEACONESS MEDICAL CENTER, published 2017) are described below.

B1: Erk1 (enzyme, human, UniProt P27361 1-379, looked up)
chain: MAAAAAQGGGGGEPRRTEGVGPGVPGEVEMVKGQPFDVGPRYTQLQYIGEGAYGMVSSAYDHVRKTRVAIKKISPFEHQTYCQRTLREIQILLRFRHENVIGIRDILRASTLEAMRDVYIVQDLMETDLYKLLKSQQLSNDHICYFLYQILRGLKYIHSANVLHRDLKPSNLLINTTCDLKICDFGLARIADPEHDHTGFLTEYVATRWYRAPEIMLNSKGYTKSIDIWSVGCILAEMLSNRPIFPGKHYLDQLNHILGILGSPSQEDLNCIINMKARNYLQSLPSKTKVAWAKLFPKSDSKALDLLDRMLTFNPNKRITVEEALAHPYLEQYYDPTDEPVAEEPFTFAMELDDLPKERLKELIFQETARFQPGVLEAP
notes: entries are written once for Erk1 and once for Erk2; also called Erk1/2 (member Erk1); total Erk1/2

One test deals with T1, myc-MKP3 (UniProt Q16828 1-381).
T1 construct: also called MAP kinase phosphatase 3; not shown: myc tag
T1 sequence (looked up): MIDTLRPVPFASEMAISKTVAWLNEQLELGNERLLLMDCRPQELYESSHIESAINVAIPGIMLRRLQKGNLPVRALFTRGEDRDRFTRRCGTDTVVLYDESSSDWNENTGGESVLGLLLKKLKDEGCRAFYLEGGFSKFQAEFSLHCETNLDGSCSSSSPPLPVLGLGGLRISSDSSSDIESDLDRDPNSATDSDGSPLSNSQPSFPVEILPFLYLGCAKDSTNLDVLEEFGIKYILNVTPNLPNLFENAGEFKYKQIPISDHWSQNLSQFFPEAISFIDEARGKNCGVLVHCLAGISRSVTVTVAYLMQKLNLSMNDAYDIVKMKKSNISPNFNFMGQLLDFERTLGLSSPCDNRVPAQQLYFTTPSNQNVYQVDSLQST
Kind of test: competition co-IP: Flag IP of 293T lysates with a constant dose of Flag-Rab2A (competitor) and falling doses of myc-MKP3, western blot for Erk1/2.

Test [1] deals with T2, IRAKM S110E peptide (IRAKM residues 103-124 with the S110E substitution).
T2 construct: Synthetic peptide; also called IRAKM Ser110E
T2 peptide: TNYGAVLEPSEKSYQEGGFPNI
In words: NMR titration, 1H-15N HSQC chemical shift changes.

For a further test, the target named is T3, IRAKM P111A (UniProt Q9Y616 1-596).
T3 construct: also called P111A mutant; P111 mutation
T3 sequence (looked up): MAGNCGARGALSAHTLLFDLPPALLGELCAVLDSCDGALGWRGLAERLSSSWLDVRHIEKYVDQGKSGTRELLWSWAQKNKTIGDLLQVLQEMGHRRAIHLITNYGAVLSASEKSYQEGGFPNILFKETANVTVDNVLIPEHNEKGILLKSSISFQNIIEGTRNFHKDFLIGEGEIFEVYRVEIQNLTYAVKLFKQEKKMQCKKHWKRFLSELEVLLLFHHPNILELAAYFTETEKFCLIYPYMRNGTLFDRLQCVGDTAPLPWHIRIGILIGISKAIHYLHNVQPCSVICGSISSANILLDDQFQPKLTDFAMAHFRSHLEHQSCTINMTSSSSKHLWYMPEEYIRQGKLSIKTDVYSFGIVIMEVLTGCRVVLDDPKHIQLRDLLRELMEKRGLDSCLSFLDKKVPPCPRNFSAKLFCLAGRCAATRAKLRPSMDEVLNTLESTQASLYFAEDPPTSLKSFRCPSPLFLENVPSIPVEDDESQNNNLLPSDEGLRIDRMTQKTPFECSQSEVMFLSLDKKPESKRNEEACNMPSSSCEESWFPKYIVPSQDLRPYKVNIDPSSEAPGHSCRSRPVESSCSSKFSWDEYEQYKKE
Kind of test: co-IP with anti-IRAKM antibody from DC2.4 cells stably expressing P111A, western blot for Pin1. In general terms: In western blotting, separated proteins are transferred to a membrane and probed.

The target of test [2] is B1. In words: reciprocal co-IP of endogenous proteins from HMLE lysate, western blot; the Erk1/2 strip does not separate Erk1 from Erk2.
Test [3] addresses T4, Erk2 (human, UniProt P28482 1-360).
T4 construct: entries are written once for Erk1 and once for Erk2; also called Erk1/2 (member Erk2); total Erk1/2
The description is as above.

For test [4], the target named is T5, IRAKM, overexpressed, from IL-33-treated cells (UniProt Q9Y616 1-596, phosphoserine at 110 (LC-MS/MS of the GST-Pin1-bound protein)).
T5 construct: also called WT IRAKM
T5 sequence (looked up): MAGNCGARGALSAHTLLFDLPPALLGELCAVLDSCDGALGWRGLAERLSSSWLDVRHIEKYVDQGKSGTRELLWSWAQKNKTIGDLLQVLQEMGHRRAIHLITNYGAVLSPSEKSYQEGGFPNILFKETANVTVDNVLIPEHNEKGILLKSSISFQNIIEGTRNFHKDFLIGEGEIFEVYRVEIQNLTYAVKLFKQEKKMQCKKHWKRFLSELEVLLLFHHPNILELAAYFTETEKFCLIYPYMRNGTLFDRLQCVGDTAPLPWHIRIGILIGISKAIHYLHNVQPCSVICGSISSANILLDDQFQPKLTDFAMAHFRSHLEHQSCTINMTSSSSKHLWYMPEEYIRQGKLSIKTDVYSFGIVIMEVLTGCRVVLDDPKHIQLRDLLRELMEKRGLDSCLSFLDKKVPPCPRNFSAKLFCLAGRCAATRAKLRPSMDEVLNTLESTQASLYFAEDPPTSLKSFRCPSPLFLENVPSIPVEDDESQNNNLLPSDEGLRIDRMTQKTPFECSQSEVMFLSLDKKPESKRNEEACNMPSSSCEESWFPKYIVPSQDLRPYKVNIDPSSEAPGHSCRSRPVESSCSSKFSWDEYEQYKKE
In words: co-IP with anti-GFP antibody from IL-33-treated HEK293 cells co-expressing IRAKM, western blot for IRAKM.

Test [5] concerns the target B1. In words: Flag co-IP from HEK293 cells transfected with Flag-Rab2A with or without AcMEK1, western blot.
The target in test [6] is T4, Erk2. The description is as above.
The target of test [7] is T6, p-Erk1 (phosphorylated Erk1) (human, UniProt P27361 2-379, phosphorylated (p-Erk1/2, induced by constitutively active MEK1); sites not given).
T6 construct: also called p-Erk1/2 (member Erk1)
The test is described as above.

Test [8] deals with T7, p-Erk2 (phosphorylated Erk2) (human, UniProt P28482 2-360, phosphorylated (p-Erk1/2, induced by constitutively active MEK1); sites not given).
T7 construct: also called p-Erk1/2 (member Erk2)
T7 sequence (P28482 2-360 limits assumed): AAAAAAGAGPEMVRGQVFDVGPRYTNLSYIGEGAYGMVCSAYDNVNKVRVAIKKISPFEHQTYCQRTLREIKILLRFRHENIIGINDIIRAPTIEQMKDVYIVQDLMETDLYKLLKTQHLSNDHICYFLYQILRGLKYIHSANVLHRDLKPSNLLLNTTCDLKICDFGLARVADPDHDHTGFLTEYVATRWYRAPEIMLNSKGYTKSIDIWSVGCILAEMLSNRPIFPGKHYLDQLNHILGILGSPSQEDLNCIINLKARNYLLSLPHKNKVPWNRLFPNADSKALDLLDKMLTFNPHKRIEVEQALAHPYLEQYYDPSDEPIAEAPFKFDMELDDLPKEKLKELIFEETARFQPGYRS
The test is described as above.

In test [9] the target is B1. In words: GST pull-down of endogenous Erk1/2 from cell lysate, western blot.
Test [10] has as its target T4, Erk2. The description is as above.

T4 sequence (P28482 whole entry): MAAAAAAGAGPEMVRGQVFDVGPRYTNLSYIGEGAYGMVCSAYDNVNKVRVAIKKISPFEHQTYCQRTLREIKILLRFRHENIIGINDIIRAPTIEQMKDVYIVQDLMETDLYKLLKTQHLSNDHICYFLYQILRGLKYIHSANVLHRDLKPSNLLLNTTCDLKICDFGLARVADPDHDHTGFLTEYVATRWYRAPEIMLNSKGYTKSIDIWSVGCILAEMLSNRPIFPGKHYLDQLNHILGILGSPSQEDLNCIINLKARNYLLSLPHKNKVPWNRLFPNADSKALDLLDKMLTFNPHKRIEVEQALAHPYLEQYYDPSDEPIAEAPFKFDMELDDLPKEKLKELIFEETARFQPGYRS

For B1, in the test with myc-MKP3, the binding result was “binds”.

B2: 15N-labeled Pin1 WW domain (Pin1 residues 1-50) (other, UniProt Q13526 1-50, looked up)
chain: MADEEKLPPGWEKRMSRSSGRVYYFNHITNASQWERPSGNSSSGGKNGQG
modifications: uniformly 15N-labeled
notes: range 1-50; also called 15N-Pin1-WW; 15N-Pin1 WW
As to B2, the dissociation constant Kd in [1] stood at 1510 µM.

B3: Pin1, endogenous in DC2.4 cells (enzyme, mouse, UniProt Q9QUR7 1-165, looked up)
chain: MADEEKLPPGWEKRMSRSSGRVYYFNHITNASQWERPSGGSTVGGSSKNGQGEPAKVRCSHLLVKHSQSRRPSSWRQEKITRSKEEALELINGYIQKIKSGEEDFESLASQFSDCSSAKARGDLGPFSRGQMQKPFEDASFALRTGEMSGPVFTDSGIHIILRTE
Regarding B3, the binding result with IRAKM P111A is given as “no binding”.

B4: endogenous Rab2A (HMLE cells) (enzyme, human, UniProt P61019 2-212, looked up)
chain: AYAYLFKYIIIGDTGVGKSCLLLQFTDKRFQPVHDLTIGVEFGARMITIDGKQIKLQIWDTAGQESFRSITRSYYRGAAGALLVYDITRRDTFNHLTTWLEDARQHSNSNMVIMLIGNKSDLESRREVKKEEGEAFAREHGLIFMETSAKTASNVEEAFINTAKEIYEKIQEGVFDINNEANGIKIGPQHAATNATHAGNQGGQQAGGGCC
As to B4, the binding result with Erk1 [2] and in the test with Erk2 [3] was “binds” each time.

B5: GFP-PPlase (other)
chain: GKNGQGEPARVRCSHLLVKHSQSRRPSSWRQEKITRTKEEALELINGYIQKIKSGEEDFESLASQFSDCSSAKARGDLGAFSRGQMQKPFEDASFALRTGEMSGPVFTDSGIHIILRTE
notes: also called GFP fused the Pin1 peptidyl-prolyl cis-trans isomerase (PPlase) domain; GFP-PPlase domain; not shown: GFP
Consider B5, for which the binding result in [4] is on record as “no binding”.

B6: Flag-Rab2A (enzyme, UniProt P61019 1-212, looked up)
chain: MAYAYLFKYIIIGDTGVGKSCLLLQFTDKRFQPVHDLTIGVEFGARMITIDGKQIKLQIWDTAGQESFRSITRSYYRGAAGALLVYDITRRDTFNHLTTWLEDARQHSNSNMVIMLIGNKSDLESRREVKKEEGEAFAREHGLIFMETSAKTASNVEEAFINTAKEIYEKIQEGVFDINNEANGIKIGPQHAATNATHAGNQGGQQAGGGCC
notes: Expressed in HEK293/293T or HMLE cells; also called Flag-tagged wild-type Rab2A; not shown: Flag tag
On to B6, for which the binding result (in the test with Erk1 [5]; in the test with Erk2 [6]; in test [7]; in test [8]) was “binds” each time.

B7: GST-Rab2A (wild type) (enzyme, UniProt P61019 1-212, looked up)
chain: MAYAYLFKYIIIGDTGVGKSCLLLQFTDKRFQPVHDLTIGVEFGARMITIDGKQIKLQIWDTAGQESFRSITRSYYRGAAGALLVYDITRRDTFNHLTTWLEDARQHSNSNMVIMLIGNKSDLESRREVKKEEGEAFAREHGLIFMETSAKTASNVEEAFINTAKEIYEKIQEGVFDINNEANGIKIGPQHAATNATHAGNQGGQQAGGGCC
notes: also called wild-type GST-Rab2A fusion protein; not shown: GST tag
As for B7, the binding result with Erk1 [9] and in the test with Erk2 [10] was “binds” in each case.

B8: GST-Rab2A mut1/2 (enzyme, UniProt P61019 1-212, looked up)
chain: MAYAYLFKYIIIGDTGVGKSCLLLQFTDAAFQPVHDATAGVEFGARMITIDGKQIKLQIWDTAGQESFRSITRSYYRGAAGALLVYDITRRDTFNHLTTWLEDARQHSNSNMVIMLIGNKSDLESRREVKKEEGEAFAREHGLIFMETSAKTASNVEEAFINTAKEIYEKIQEGVFDINNEANGIKIGPQHAATNATHAGNQGGQQAGGGCC
notes: not shown: GST tag
Consider B8, for which the binding result with Erk1 [9] and in the test with Erk2 [10] was “no binding” each time.

What is called Kd is the equilibrium constant for the complex coming apart.
